From patent US20140287471A1, “VARIANT CBH I POLYPEPTIDES WITH REDUCED PRODUCT INHIBITION” (BP CORPORATION NORTN AMERICA INC., priority 2011, published 2014)
Where a chain is given by its changes, count along the chain named.

B1: 268— Trp (protein, UniProt P62694 18-513, looked up, variant R268W)
Exoglucanase 1: QSACTLQSETHPPLTWQKCSSGGTCTQQTGSVVIDANWRWTHATNSSTNCYDGNTWSSTLCPDNETCAKNCCLDGAAYASTYGVTTSGNSLSIGFVTQSAQKNVGARLYLMASDTTYQEFTLLGNEFSFDVDVSQLPCGLNGALYFVSMDADGGVSKYPTNTAGAKYGTGYCDSQCPRDLKFINGQANVEGWEPSSNNANTGIGGHGSCCSEMDIWEANSISEALTPHPCTTVGQEICEGDGCGGTYSDNWYGGTCDPDGCDWNPYRLGNTSFYGPGSSFTLDTTKKLTVVTQFETSGAINRYYVQNGVTFQQPNAELGSYSGNELNDDYCTAEEAEFGGSSFSDKGGLTQFKKATSGGMVLVMSLWDDYYANMLWLDSTYPTNETSSTPGAVRGSCSTSSGVPAQVESQSPNAKVTFSNIKFGPIGSTGNPSGGNPPGGNRGTTTTRRPATTTGSSPGPTQSHYGQCGGIGYSGPTVCASGTTCQVLNPYYSQCL
B2: 268— Cys (protein, UniProt P62694 18-513, looked up, variant R268C)
Exoglucanase 1: B1 Exoglucanase 1 with W251C
B3: 268A+411— Leu (protein, UniProt P62694 18-513, looked up, variant R268A R411L)
Exoglucanase 1: B1 Exoglucanase 1 with W251A, R394L
B4: 268A+411— Ile (protein, UniProt P62694 18-513, looked up, variant R268A R411I)
Exoglucanase 1: B1 Exoglucanase 1 with W251A, R394I
B5: 268A+411— Glu (protein, UniProt P62694 18-513, looked up, variant R268A R411E)
Exoglucanase 1: B1 Exoglucanase 1 with W251A, R394E
B6: 268— Asp (protein, UniProt P62694 18-513, looked up, variant R268D)
Exoglucanase 1: B1 Exoglucanase 1 with W251D
B7: 268A+411— Cys (protein, UniProt P62694 18-513, looked up, variant R268A R411C)
Exoglucanase 1: B1 Exoglucanase 1 with W251A, R394C
B8: 268_+411A Ala (protein, UniProt P62694 18-513, looked up, variant R268A R411A)
Exoglucanase 1: B1 Exoglucanase 1 with W251A, R394A
B9: 268A+411— Trp (protein, UniProt P62694 18-513, looked up, variant R268A R411W)
Exoglucanase 1: B1 Exoglucanase 1 with W251A, R394W
B10: 268— Tyr (protein, UniProt P62694 18-513, looked up, variant R268Y)
Exoglucanase 1: B1 Exoglucanase 1 with W251Y
B11: 268_+411A Pro (protein, UniProt P62694 18-513, looked up, variant R268P R411A)
Exoglucanase 1: B1 Exoglucanase 1 with W251P, R394A
B12: 268_+411A Arg (protein, UniProt P62694 18-513, looked up, variant R411A)
Exoglucanase 1: B1 Exoglucanase 1 with W251R, R394A
B13: 268A+411— Val (protein, UniProt P62694 18-513, looked up, variant R268A R411V)
Exoglucanase 1: B1 Exoglucanase 1 with W251A, R394V
B14: 268A+411— Gly (protein, UniProt P62694 18-513, looked up, variant R268A R411G)
Exoglucanase 1: B1 Exoglucanase 1 with W251A, R394G
B15: 268— Thr (protein, UniProt P62694 18-513, looked up, variant R268T)
Exoglucanase 1: B1 Exoglucanase 1 with W251T
B16: 268— Ser (protein, UniProt P62694 18-513, looked up, variant R268S)
Exoglucanase 1: B1 Exoglucanase 1 with W251S
B17: 268A+411— Ala (protein, UniProt P62694 18-513, looked up, variant R268A R411A)
Exoglucanase 1: B1 Exoglucanase 1 with W251A, R394A
B18: 268A+411— Asp (protein, UniProt P62694 18-513, looked up, variant R268A R411D)
Exoglucanase 1: B1 Exoglucanase 1 with W251A, R394D
B19: 268— His (protein, UniProt P62694 18-513, looked up, variant R268H)
Exoglucanase 1: B1 Exoglucanase 1 with W251H
B20: 268_+411A Ile (protein, UniProt P62694 18-513, looked up, variant R268I R411A)
Exoglucanase 1: B1 Exoglucanase 1 with W251I, R394A
B21: 268_+411A Val (protein, UniProt P62694 18-513, looked up, variant R268V R411A)
Exoglucanase 1: B1 Exoglucanase 1 with W251V, R394A
B22: 268A+411— Met (protein, UniProt P62694 18-513, looked up, variant R268A R411M)
Exoglucanase 1: B1 Exoglucanase 1 with W251A, R394M
B23: 268— Glu (protein, UniProt P62694 18-513, looked up, variant R268E)
Exoglucanase 1: B1 Exoglucanase 1 with W251E
B24: 268— Asn (protein, UniProt P62694 18-513, looked up, variant R268N)
Exoglucanase 1: B1 Exoglucanase 1 with W251N
B25: 268_+411A Trp (protein, UniProt P62694 18-513, looked up, variant R268W R411A)
Exoglucanase 1: B1 Exoglucanase 1 with R394A

Experiments:
[1] = 4-MUL cellobiose tolerance/inhibition assay, dose-response IC50 (Example 2); format: biochemical; conditions: primary screening, n=1; for Tolerance at 1 mM CB (MUL Data): 1 mM cellobiose; for IC50: 10 μL enzyme, cellobiose range 0.0001-100 mM, read-out: IC50 (MUL Data)
In short: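 CBH I variant supernatants (5 μg/mL final, or undiluted if lower) on 0.5 mM 4-MUL in 100 mM MES pH 6 with 25 mM gluconolactone, fluorescence ex/em 365/450 nm. Activity measured at 6–8 cellobiose levels up to 100 mM; IC50 from four-parameter fit, bottom constrained to knockout background.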

[2] = 4-MUL assay, specific activity (Example 2); format: biochemical; conditions: primary screening; 10 μL enzyme; n=1
Experimental: CBH I activity on was measured using the 4-MUL assay using gluconolactone to inhibit any BG activity. The fluorogenic 4-MUL substrate (SIGMA) was prepared at 100 mM concentration in DMSO. Assays were run in black 96-well-flat-bottomed plates (Costar) and 4-MU fluorescence was read on a BioTek H4 plate reader (ex/em 365/450 nm). Assay plates were filled with buffer (final concentrations of 100 mM MES, pH 6, 25 mM gluconolactone, with or without cellobiose; cellobiose concentrations are listed with appropriate data sets), to which enzyme mixture was added (10-30 μl, 5 μg/mL final) and then assays were initiated by addition of 4-MUL (0.5 mM final concentration in 100 μl total volume). Enzyme mixtures were either CBH I variants from harvested supernatants or standards. Standards included: a negative control, consisting of harvested supernatant from the CBH I knock-out strain; a positive control, consisting of wild-type CBH I from harvested supernatants; and, a commercial CBH I standard (E-CBHI from Megazymes). Activity standards were run by serial dilution of commercial CBH I from 40 to 0.02 μg/mL and 4-MU (SIGMA, prepared at 20 mM in DMSO) (in dilution increments of 2-fold; all dilutions were made using harvested supernatant from the knock-out control). Kinetic rates were monitored over the first 15 mins following 4-MUL addition; initial rates were calculated based on data in the linear range. After 1 hr, a final endpoint read was taken, both before and after reaction quenching (100 μL of 200 mM Sodium Carbonate, pH 10.0). Activity was calculated for kinetic and endpoint reads; background resulting from the CBH I knock-out supernatant remained negligible. 4MU standard curves and HPLC quantification values were used to calculate specific activity.
The specific activity (SA) of the variant library was evaluated in a secondary 4-MUL assay. […] On average, a mutation at position 268 increases the specific activity by 2.5 fold over that of wild type. A mutation at 268 in combination with 411 is around 1.5-1.6 fold higher than wild-type, on average.

Row | Molecule | Tolerance at 1 mM CB (MUL Data) [1] [%] | IC50 [1] [mM] | SA (μmol 4 MU/min/mg) (MUL Data) [2]
1 | B1 | 42 | 0.61 | 1.31
2 | B2 | 35 | 0.52 | 0.86
3 | B3 | 99 | 25.1 | 1.72
4 | B4 | 107 | 28 | 0.58
5 | B5 | 95 | 16.9 | 0.74
6 | B6 | 44 | 0.9 | 0.67
7 | B7 | 85 | 7.66 | 1.58
8 | B8 | 65 | 1.33 | 0.52
9 | B9 | 97 | 28.4 | 3.07
10 | B10 | 35 | 0.45 | 0.65
11 | B11 | 80 | 7.31 | 1.80
12 | B12 | 72 | 1.6 | 0.38
13 | B13 | 102 | 15.1 | 1.39
14 | B14 | 91 | 12.1 | 0.88
15 | B15 | 42 | 0.6 | 0.97
16 | B16 | 45 | 0.74 | 1.00
17 | B17 | 83 | 5.56 | 1.19
18 | B18 | 93 | 10.2 | 2.12
19 | B19 | 20 | 0.25 | 1.21
20 | B20 | 90 | 10.4 | 0.89
21 | B21 | 93 | 7.48 | 1.33
22 | B22 | 97 | 11.5 | 0.87
23 | B23 | 52 | 0.87 | 0.88
24 | B24 | 41 | 0.67 | 13.97
25 | B25 | 84 | 7.01 | 0.81
